Laboratory results from publication PMC3176292.

T1: Flag-Smad4, full length, Q13485
T1 chain: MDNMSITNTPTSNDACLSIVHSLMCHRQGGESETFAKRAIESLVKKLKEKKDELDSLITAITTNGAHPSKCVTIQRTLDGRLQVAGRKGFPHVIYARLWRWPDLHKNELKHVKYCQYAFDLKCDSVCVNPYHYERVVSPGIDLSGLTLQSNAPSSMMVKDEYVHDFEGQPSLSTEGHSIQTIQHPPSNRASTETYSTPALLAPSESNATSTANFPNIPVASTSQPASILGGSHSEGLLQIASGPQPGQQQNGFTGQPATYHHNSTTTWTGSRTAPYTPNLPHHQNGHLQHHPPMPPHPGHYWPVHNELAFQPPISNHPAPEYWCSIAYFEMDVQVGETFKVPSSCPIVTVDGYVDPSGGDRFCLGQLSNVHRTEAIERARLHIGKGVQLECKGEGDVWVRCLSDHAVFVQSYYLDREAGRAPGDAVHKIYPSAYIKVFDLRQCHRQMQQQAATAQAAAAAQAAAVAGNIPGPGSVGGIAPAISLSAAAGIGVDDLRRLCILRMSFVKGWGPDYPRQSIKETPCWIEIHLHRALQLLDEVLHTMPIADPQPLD


Columns and labels:
[1] = biological target: T1, Flag-Smad4, full length, Q13485; test: co-IP; LUMIER: Renilla luciferase-Smad3 and Flag-tagged partner co-expressed with constitutively active Alk5 in HEK-293; Flag protein captured from cleared lysate (TNE: 10 mM Tris-HCl pH 7.8, 150 mM NaCl, 1 mM EDTA, 1% Igepal CA-630) on anti-Flag 96-well plates, 2 h at 4 °C; co-precipitated Renilla luciferase activity, TrxGA background subtracted, percent of wild-type Smad3; details: remark: other sources report otherwise
[2] = biological target: T1, Flag-Smad4, full length, Q13485; test: co-IP; LUMIER as a1 but without co-expression of the activated Alk5 kinase (Smad3 not phosphorylated); percent of phosphorylated wild-type Smad3; details: remark: other sources report otherwise

| percent binding relative to wild-type Smad3 [1] [%] | percent binding relative to wild-type Smad3 [2] [%] | Binder |
| --- | --- | --- |
| 100 |  | Renilla luciferase-Smad3 wild type, co-expressed with constitutively active Alk5 (phosphorylated Smad3), P84022 1-425 (natural protein, here or on the partner: phosphorylated by the co-expressed activated Alk5 kinase (sites not given)) MSSILPFTPPIVKRLLGWKKGEQNGQEEKWCEKAVKSLVKKLKKTGQLDELEKAITTQNVNTKCITIPRSLDGRLQVSHRKGLPHVIYCRLWRWPDLHSHHELRAMELCEFAFNMKKDEVCVNPYHYQRVETPVLPPVLVPRHTEIPAEFPPLDDYSHSIPENTNFPAGIEPQSNIPETPPPGYLSEDGETSDHQMNHSMDAGSPNLSPNPMSPAHNNLDLQPVTYCEPAFWCSISYYELNQRVGETFHASQPSMTVDGFTDPSNSERFCLGLLSNVNRNAAVELTRRHIGRGVRLYYIGGEVFAECLSDSAIFVQSPNCNQRYGWHPATVCKIPPGCNLKIFNNQEFAALLAQSVNQGFEAVYQLTRMCTIRMSFVKGWGAEYRRQTVTSTPCWIELHLNGPLQWLDKVLTQMGSPSIRCSSVS |
|  | 6 | Renilla luciferase-Smad3 wild type, without Alk5 (not phosphorylated), P84022 1-425 (natural protein) MSSILPFTPPIVKRLLGWKKGEQNGQEEKWCEKAVKSLVKKLKKTGQLDELEKAITTQNVNTKCITIPRSLDGRLQVSHRKGLPHVIYCRLWRWPDLHSHHELRAMELCEFAFNMKKDEVCVNPYHYQRVETPVLPPVLVPRHTEIPAEFPPLDDYSHSIPENTNFPAGIEPQSNIPETPPPGYLSEDGETSDHQMNHSMDAGSPNLSPNPMSPAHNNLDLQPVTYCEPAFWCSISYYELNQRVGETFHASQPSMTVDGFTDPSNSERFCLGLLSNVNRNAAVELTRRHIGRGVRLYYIGGEVFAECLSDSAIFVQSPNCNQRYGWHPATVCKIPPGCNLKIFNNQEFAALLAQSVNQGFEAVYQLTRMCTIRMSFVKGWGAEYRRQTVTSTPCWIELHLNGPLQWLDKVLTQMGSPSIRCSSVS |
